Consider one molecule from US6420345 (CELL GENESYS, dated 2002).

Assay [1] deals with T1, CDK4/cyclin D1 complex (UniProt P11802 1-303; P24385 1-295). Description: cell-based or functional assay.
Assay [2] has as its target CDK2/cyclin E complex (UniProt P24941 1-298; P24864 16-410). Description: cell-based or functional assay.
The target of assay [3] is CDK2/cyclin A complex (UniProt P24941 1-298; P20248 1-432). Description: cell-based or functional assay.
Assay [4] addresses CDC2/cyclin B complex (UniProt P06493 1-297; P14635 1-433). Description: cell-based or functional assay.
Assay [5] has as its target T1, CDK4/cyclin D1 complex. Description: in vitro kinase inhibition assay (32P incorporation into GST-Rb).
Procedure: Partial purification of CDK4/cyclin D1 was achieved by a 20–40% ammonium sulfate preparation of the cell lysate and was used in the assays. […] These assays were carried out in 96 well plates (Nunc, Naperville, Ill.) and monitored by γ-^32P-ATP incorporation.
The concentrations of GST-Rb and histone H1 were 4.4 mM and 19 mM, respectively, and the concentration of ATP was 50–60 mM. The reaction mixtures contained 50 mM Tris-Cl pH 7.5, 10 mM MgCl_2, and 1 mM DTT in a total volume of 50 or 100 µl. After incubation at 30° C. for 10–20 minutes, the reaction was terminated by the addition of a stop solution containing EDTA. The phosphorylated substrates were captured either by GST-Sepharose or TCA precipitation and then monitored for radioactivity (Microplate Scintillation Counter, Packard, Meriden, Conn.).

T1 sequence (P11802 whole entry, chain 1 of 2): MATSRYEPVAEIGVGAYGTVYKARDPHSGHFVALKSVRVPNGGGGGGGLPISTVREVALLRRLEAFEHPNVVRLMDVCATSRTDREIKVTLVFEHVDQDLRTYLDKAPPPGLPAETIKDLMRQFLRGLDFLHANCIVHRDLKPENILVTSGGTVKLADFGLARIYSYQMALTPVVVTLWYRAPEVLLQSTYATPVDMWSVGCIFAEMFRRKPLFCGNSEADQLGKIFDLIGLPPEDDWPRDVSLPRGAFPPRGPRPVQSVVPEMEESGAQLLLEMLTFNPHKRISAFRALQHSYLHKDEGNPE
T1 sequence (P24385 whole entry, chain 2 of 2): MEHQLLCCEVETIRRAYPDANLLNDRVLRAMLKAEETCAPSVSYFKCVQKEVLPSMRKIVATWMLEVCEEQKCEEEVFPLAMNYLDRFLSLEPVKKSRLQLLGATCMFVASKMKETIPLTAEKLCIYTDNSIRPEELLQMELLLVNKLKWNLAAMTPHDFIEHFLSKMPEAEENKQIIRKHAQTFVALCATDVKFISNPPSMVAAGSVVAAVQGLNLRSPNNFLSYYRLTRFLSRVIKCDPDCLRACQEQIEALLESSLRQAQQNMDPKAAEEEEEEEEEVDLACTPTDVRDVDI
Chain of CDC2/cyclin B complex (P06493 whole entry, chain 1 of 2): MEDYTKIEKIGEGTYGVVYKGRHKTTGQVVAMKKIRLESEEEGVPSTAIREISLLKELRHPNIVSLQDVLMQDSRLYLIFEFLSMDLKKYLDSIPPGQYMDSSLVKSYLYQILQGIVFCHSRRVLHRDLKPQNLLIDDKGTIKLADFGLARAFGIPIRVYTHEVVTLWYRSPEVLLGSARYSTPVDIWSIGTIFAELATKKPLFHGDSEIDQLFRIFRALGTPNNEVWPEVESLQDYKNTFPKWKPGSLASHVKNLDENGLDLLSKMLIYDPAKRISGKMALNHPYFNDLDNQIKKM
Chain of CDC2/cyclin B complex (P14635 whole entry, chain 2 of 2): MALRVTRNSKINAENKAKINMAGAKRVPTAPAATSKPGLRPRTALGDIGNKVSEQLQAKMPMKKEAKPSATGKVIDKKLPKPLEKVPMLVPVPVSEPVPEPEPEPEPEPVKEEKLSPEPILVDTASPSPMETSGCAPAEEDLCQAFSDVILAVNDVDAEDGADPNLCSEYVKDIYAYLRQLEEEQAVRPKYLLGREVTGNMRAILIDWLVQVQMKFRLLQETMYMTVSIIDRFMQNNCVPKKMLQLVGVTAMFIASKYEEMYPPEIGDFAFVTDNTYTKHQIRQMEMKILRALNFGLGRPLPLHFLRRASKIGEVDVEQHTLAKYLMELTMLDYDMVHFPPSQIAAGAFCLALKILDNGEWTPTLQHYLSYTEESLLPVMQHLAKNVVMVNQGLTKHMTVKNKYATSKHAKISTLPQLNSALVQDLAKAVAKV

B1: human p16 (other)
chain: MEPAAGSSMEPSADWLATAAARGRVEEVRALLEAGALPNAPNSYGRRPIQVMMMGSARVAELLLLHGAEPNCADPATLTRPVHDAAREGFLDTLVVLHRAGARLDVRDAWGRLPVDLAEELGHRDVARYLRAAAGGTRGSNHARIDAAEGPSDIPD
notes: also called p16INK4
For the molecule B1, the “IC50, in vitro kinase assay” value in assay [1] is 250 nM; in assay [2] it was > 500 nM; in assay [3], > 500 nM; in assay [4] it was > 500 nM. Also, the affinity in assay [5], expressed as Ki, was 75 nM.
